Measured values taken from paper PMC5534098, “Modulation of chromatin structure by the FACT histone chaperone complex regulates HIV-1 integration” (Retrovirology, 2017).

Biological target: T1, FACT (FAcilitates Chromatin Transcription) complex, recombinant purified (human | , UniProt Q9Y5B9 1-1047; Q08945 1-709)
T1 construct: also called FACT complex; source: recombinant, purified as reported before [17, 18]
Test: pull-down
Conditions: both partners purified

T1 sequence (Q9Y5B9 whole entry, chain 1 of 2): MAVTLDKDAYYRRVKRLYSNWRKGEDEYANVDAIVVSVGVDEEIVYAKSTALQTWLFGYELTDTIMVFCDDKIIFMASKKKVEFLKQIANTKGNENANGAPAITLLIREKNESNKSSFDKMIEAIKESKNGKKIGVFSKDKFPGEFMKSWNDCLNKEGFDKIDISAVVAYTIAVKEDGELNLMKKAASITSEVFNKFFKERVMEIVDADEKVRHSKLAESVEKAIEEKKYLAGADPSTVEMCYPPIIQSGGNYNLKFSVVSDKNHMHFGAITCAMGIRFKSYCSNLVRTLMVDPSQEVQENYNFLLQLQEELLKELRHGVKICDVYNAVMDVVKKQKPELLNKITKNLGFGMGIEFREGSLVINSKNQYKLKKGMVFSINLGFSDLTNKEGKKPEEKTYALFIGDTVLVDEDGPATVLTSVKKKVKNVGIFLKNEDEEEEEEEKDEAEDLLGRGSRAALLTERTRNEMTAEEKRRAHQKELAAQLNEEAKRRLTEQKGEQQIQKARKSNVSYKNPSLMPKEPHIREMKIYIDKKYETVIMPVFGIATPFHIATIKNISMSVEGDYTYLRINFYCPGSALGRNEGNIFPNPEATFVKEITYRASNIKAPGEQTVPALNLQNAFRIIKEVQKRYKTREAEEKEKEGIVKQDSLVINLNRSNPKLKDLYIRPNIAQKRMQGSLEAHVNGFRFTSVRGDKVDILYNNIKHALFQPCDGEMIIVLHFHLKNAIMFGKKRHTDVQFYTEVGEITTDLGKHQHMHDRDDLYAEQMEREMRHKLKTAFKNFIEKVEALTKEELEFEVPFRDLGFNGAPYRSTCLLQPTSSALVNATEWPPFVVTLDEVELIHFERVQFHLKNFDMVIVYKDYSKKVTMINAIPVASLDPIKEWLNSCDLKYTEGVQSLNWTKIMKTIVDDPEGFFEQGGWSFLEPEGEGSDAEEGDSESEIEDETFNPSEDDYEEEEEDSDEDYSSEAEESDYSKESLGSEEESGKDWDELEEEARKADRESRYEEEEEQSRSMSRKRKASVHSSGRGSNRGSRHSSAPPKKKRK
T1 sequence (Q08945 whole entry, chain 2 of 2): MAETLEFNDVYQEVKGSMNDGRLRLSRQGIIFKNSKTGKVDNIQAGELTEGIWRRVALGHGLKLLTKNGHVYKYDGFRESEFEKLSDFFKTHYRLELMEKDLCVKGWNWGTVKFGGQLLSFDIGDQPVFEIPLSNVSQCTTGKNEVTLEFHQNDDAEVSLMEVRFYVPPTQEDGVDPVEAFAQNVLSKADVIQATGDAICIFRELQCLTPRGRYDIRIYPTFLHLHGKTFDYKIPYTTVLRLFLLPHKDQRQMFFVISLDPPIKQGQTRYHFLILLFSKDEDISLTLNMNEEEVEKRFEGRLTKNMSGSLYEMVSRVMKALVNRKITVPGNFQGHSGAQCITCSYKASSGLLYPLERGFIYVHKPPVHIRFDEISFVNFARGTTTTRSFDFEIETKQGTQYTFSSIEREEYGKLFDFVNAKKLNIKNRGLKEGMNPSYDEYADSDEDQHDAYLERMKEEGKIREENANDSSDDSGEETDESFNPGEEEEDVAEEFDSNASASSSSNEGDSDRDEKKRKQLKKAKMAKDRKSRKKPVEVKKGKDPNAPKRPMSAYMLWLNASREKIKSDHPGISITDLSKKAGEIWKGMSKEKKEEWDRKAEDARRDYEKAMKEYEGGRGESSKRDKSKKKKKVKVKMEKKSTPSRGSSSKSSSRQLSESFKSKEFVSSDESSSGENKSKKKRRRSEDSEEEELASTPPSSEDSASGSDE

B1: LEDGF/p75-GST (natural protein)
chain: not shown
B1: binds.
